Values after ≈ are worked out from the molar mass of the structure shown.
Tests used:
[1] = test system: T1, E. coli BW25113 ΔbamBΔtolC; experiment: microbe, parasite or virus in culture; conditions: Escherichia coli, BW25113, 24 h; empty vector
T1 construct: BW25113 ΔbamBΔtolC empty vector pGDP4
Description: mphB was codon optimized, synthetized as a gBlock (IDT) and cloned into pET28a with an N-terminal histidine tag. The codon optimized mphB sequence is in Supplementary Table 17. mphI was previously cloned into pET22b[36]. pGDP4 is a derivative of pET28a with the multiple-cloning site under the control of the constitutive lac promoter. mphI was subcloned into pGDP4 using the XbaI and XhoI restriction sites. E. coli was routinely cultured on LB-Lennox (Bioshop) at 37 °C overnight, and either 100 µg mL^−1 ampicillin or 50 µg mL^−1 kanamycin was used for plasmid selection. E. coli TOP10 (Invitrogen) was used for routine cloning experiments and susceptibility testing of mphs cloned into pGDP4. E. coli BL21(DE3) (Stratagene, USA)was used for protein overexpression experiments. E. coli BW25113 ΔbamBΔtolC is an antibiotic hypersensitive, and was used for susceptibility testing of Mphs cloning into pGDP4. Antibiotic susceptibility testing was performed according to the Clinical and Laboratory Standards Institute guidelines[74] for determining minimal inhibitory concentration (MIC) in 96-well plates (Sarstedt, Germany) in duplicate. MIC values were reproducible. A saline suspension of OD600 of 0.1 was made from 2–3 colonies of a fresh overnight, and diluted 1:200 into Mueller-Hinton Broth (BD Biosciences). […] Susceptibility assays were performed at least two independent times.

MphH = target: T2, MphH (Brachybacterium faecium, UniProt C7MEP1); experiment: X-ray crystal structure; type: binding
T2 construct: pMCSG53, N-terminal His6 tag and TEV site, crystallized

MphI = test system: T3, MphI; experiment: PK/LDH-coupled continuous assay; type: biochemical, Paenibacillus sp. LC231; conditions: 10 mM MgCl2, 40 mM KCl, pH 7.5
T3 construct: full-length, His-tagged in pET22b, expressed in E. coli BL21(DE3), Ni-NTA purified; primers span nt 1-927

MphB = target: T4, MphB (Escherichia coli, UniProt A0A0H3EUF3); experiment: biochemical; design: PK/LDH-coupled continuous assay of macrolide phosphorylation; steady-state kinetics, NADH absorbance
T4 construct: codon-optimized gene, N-terminal His tag in pET28a, expressed in E. coli BL21(DE3), Ni-NTA purified
Description: (§1) Steady-state kinetics for Mphs were measured using the continuous PK/LDH-coupled assay[27],[32],[36],[71]. Reactions were performed in 96-well plates (Nunc, Thermo Scientific) using Spectramax Plus384 (Molecular Devices) in duplicate. Individual reactions were 100 µL and contained 50 mM HEPES pH 7.5, 40 mM KCl, 10 mM MgCl2, 0.2 mM NADH, 3.5 mM PEP, and 4.8 U PK/LDH (pyruvate kinase/lactate dehydrogenase). […] For determining the Km for macrolides, GTP was maintained at 200 µM and macrolides were varied between 0.49 µM and 1000 µM. Enzyme efficiency varied considerably between substrates, and therefore some enzymes were used at different concentrations depending on the substrate in order to produce a linear range suitable for Km determination. These concentrations were as follows; MphB 140 nM (most substrates), MphB 36 nM (josamycin), MphI 45 nM (descladinose macrolides), MphI 1.44 µM (C3 cladinose macrolides), Azi_1.1 90 nM (all substrates), Ery_1 (all substrates), MphK 680 nM (all substrates), MphIS111R/T166E/P211L 90 nM (descladinose macrolides), MphIS111R/T166E/P211L 1.43 µM (C3 cladinose macrolides), MphIM40A/S111R/T166E 22 nM (descladinose macrolides), MphIM40A/S111R/T166E 430 nM (C3 cladinose macrolides), MphIS111R/T166E 22 nM (descladinose macrolides), MphIS111R/T166E 1.43 µM (C3 cladinose macrolides). Enzyme kinetics experiments were performed at least two independent times. Steady-state kinetics of Mphs

[2] = test system: CC[C@H]1OC(=O)[C@H](C)C(=O)[C@H](C)[C@@H](O[C@@H]2O[C@H](C)C[C@H](N(C)C)[C@H]2O)[C@](C)(OC)C[C@@H](C)C(=O)[C@H](C)[C@H]2N(CCCCn3cnc(-c4cccnc4)c3)C(=O)O[C@]12C; experiment: PK/LDH-coupled continuous assay; type: biochemical, Escherichia coli; conditions: 200 uM GTP, 10 mM MgCl2, 40 mM KCl, pH 7.5
[3] = test system: CC[C@H]1OC(=O)[C@H](C)[C@@H](O[C@H]2C[C@@](C)(OC)[C@@H](O)[C@H](C)O2)[C@H](C)[C@@H](O[C@@H]2O[C@H](C)C[C@H](N(C)C)[C@H]2O)[C@](C)(O)C[C@@H](C)C(=O)[C@H](C)[C@@H](O)[C@]1(C)O; experiment: PK/LDH-coupled continuous assay; type: biochemical, Escherichia coli; conditions: 200 uM GTP, 10 mM MgCl2, 40 mM KCl, pH 7.5
[4] = test system: CC[C@H]1OC(=O)[C@H](C)[C@@H](O[C@H]2C[C@@](C)(OC)[C@@H](O)[C@H](C)O2)[C@H](C)[C@@H](O[C@@H]2O[C@H](C)C[C@H](N(C)C)[C@H]2O)[C@](C)(O)C[C@@H](C)CN(C)[C@H](C)[C@@H](O)[C@]1(C)O; experiment: PK/LDH-coupled continuous assay; type: biochemical, Escherichia coli; conditions: 200 uM GTP, 10 mM MgCl2, 40 mM KCl, pH 7.5
[5] = test system: Nc1nc2c(ncn2[C@@H]2O[C@H](COP(=O)(O)OP(=O)(O)OP(=O)(O)O)[C@@H](O)[C@H]2O)c(=O)[nH]1; experiment: PK/LDH-coupled continuous assay; type: biochemical, Escherichia coli; conditions: 100 uM telithromycin, 10 mM MgCl2, 40 mM KCl, pH 7.5
[6] = test system: CC[C@H]1OC(=O)[C@H](C)C(=O)[C@H](C)[C@@H](O[C@@H]2O[C@H](C)C[C@H](N(C)C)[C@H]2O)[C@](C)(OC)C[C@@H](C)C(=O)[C@H](C)[C@H]2N(CCCCn3cnc(-c4cccnc4)c3)C(=O)O[C@]12C; experiment: PK/LDH-coupled continuous assay; type: biochemical, Bacillus subtilis; conditions: 200 uM GTP, 10 mM MgCl2, 40 mM KCl, pH 7.5
[7] = test system: CC[C@H]1OC(=O)[C@H](C)[C@@H](O[C@H]2C[C@@](C)(OC)[C@@H](O)[C@H](C)O2)[C@H](C)[C@@H](O[C@@H]2O[C@H](C)C[C@H](N(C)C)[C@H]2O)[C@](C)(O)C[C@@H](C)CN(C)[C@H](C)[C@@H](O)[C@]1(C)O; experiment: PK/LDH-coupled continuous assay; type: biochemical, Bacillus subtilis; conditions: 200 uM GTP, 10 mM MgCl2, 40 mM KCl, pH 7.5
[8] = test system: Nc1nc2c(ncn2[C@@H]2O[C@H](COP(=O)(O)OP(=O)(O)OP(=O)(O)O)[C@@H](O)[C@H]2O)c(=O)[nH]1; experiment: PK/LDH-coupled continuous assay; type: biochemical, Bacillus subtilis; conditions: 100 uM telithromycin, 10 mM MgCl2, 40 mM KCl, pH 7.5
[9] = test system: CC[C@H]1OC(=O)C[C@@H](O)[C@H](C)[C@@H](O[C@@H]2O[C@H](C)[C@@H](O[C@H]3C[C@@](C)(O)[C@@H](O)[C@H](C)O3)[C@H](N(C)C)[C@H]2O)[C@@H](CC=O)C[C@@H](C)C(=O)/C=C/C(C)=C/[C@@H]1CO[C@@H]1O[C@H](C)[C@@H](O)[C@@H](OC)[C@H]1OC; experiment: purified protein, by the assay type; design: continuous PK/LDH-coupled NADH kinase assay, steady-state Km, macrolide or GTP varied; conditions: pH 7.5
Description: as §1, with “times.” for “times. Steady-state kinetics of Mphs”

[10] = test system: CC[C@H]1OC(=O)[C@H](C)[C@@H](O[C@H]2C[C@@](C)(OC)[C@@H](O)[C@H](C)O2)[C@H](C)[C@@H](O[C@@H]2O[C@H](C)C[C@H](N(C)C)[C@H]2O)[C@](C)(O)C[C@@H](C)/C(=N\OCOCCOC)[C@H](C)[C@@H](O)[C@]1(C)O; experiment: purified protein, by the assay type; design: continuous PK/LDH-coupled NADH kinase assay, steady-state Km, macrolide or GTP varied; conditions: pH 7.5
Description: as §1, with “times.” for “times. Steady-state kinetics of Mphs”

CC[C@H]1OC(=O)[C@H](C)[C@@H](O[C@H]2C[C@@](C)(OC)[C@@H](O)[C@H](C)O2)[C@H](C)[C@@H](O[C@@H]2O[C@H](C)C[C@H](N(C)C)[C@H]2O)[C@](C)(OC)C[C@@H](C)C(=O)[C@H](C)[C@@H](O)[C@]1(C)O [Clarithromycin]
MIC [1]: 0.5 µg/mL (≈ 0.668 µM)

Nc1nc2c(ncn2[C@@H]2O[C@H](COP(=O)(O)OP(=O)(O)O)[C@@H](O)[C@H]2O)c(=O)[nH]1 [GDP]
X-ray crystal structure (MphH; nucleotide site, GDP + Pi, crystallized with 5 mM azithromycin and 5 mM GMPPCP): MphH (native) GDP + Pi complex (5UXC)

Nc1nc2c(ncn2[C@@H]2O[C@H](COP(=O)(O)OP(=O)(O)OP(=O)(O)O)[C@@H](O)[C@H]2O)c(=O)[nH]1 [GTP]
Km (MphI; 100 uM telithromycin): 10 ± 1 µM

NC[C@H]1O[C@H](O[C@H]2[C@H](O)[C@@H](O[C@H]3O[C@H](CO)[C@@H](O)[C@H](N)[C@H]3O)[C@H](N)C[C@@H]2N)[C@H](O)[C@@H](O)[C@@H]1O [Kanamycin]
MIC [1]: 1 µg/mL (≈ 2.06 µM)

CC[C@H]1OC(=O)C[C@@H](O)[C@H](C)[C@@H](O[C@@H]2O[C@H](C)[C@@H](O[C@H]3C[C@@](C)(O)[C@@H](O)[C@H](C)O3)[C@H](N(C)C)[C@H]2O)[C@@H](CC=O)C[C@@H](C)C(=O)/C=C/C(C)=C/[C@@H]1CO[C@@H]1O[C@H](C)[C@@H](O)[C@@H](OC)[C@H]1OC [Tylosin]
MIC [1]: 2 µg/mL (≈ 2.18 µM)
Ki (MphB): 350 ± 160 µM

CC[C@H]1OC(=O)[C@H](C)[C@@H](O[C@H]2C[C@@](C)(OC)[C@@H](O)[C@H](C)O2)[C@H](C)[C@@H](O[C@@H]2O[C@H](C)C[C@H](N(C)C)[C@H]2O)[C@](C)(O)C[C@@H](C)CN(C)[C@H](C)[C@@H](O)[C@]1(C)O [azithromycin]
X-ray crystal structure (MphH; macrolide-binding cleft, 5 mM azithromycin): MphH (Se-Met) azithromycin complex (5UXD)
Km (MphI; 200 uM GTP): 56 ± 3 µM
MIC [1]: 0.063 µg/mL (≈ 0.0841 µM)

CC[C@H]1OC(=O)[C@H](C)[C@@H](O[C@H]2C[C@@](C)(OC)[C@@H](O)[C@H](C)O2)[C@H](C)[C@@H](O[C@@H]2O[C@H](C)C[C@H](N(C)C)[C@H]2O)[C@](C)(O)C[C@@H](C)C(=O)[C@H](C)[C@@H](O)[C@]1(C)O [erythromycin]
Km (MphI; 200 uM GTP): 110 ± 10 µM
MIC [1]: 0.5 µg/mL (≈ 0.681 µM)

CC[C@H]1OC(=O)[C@H](C)[C@@H](O[C@H]2C[C@@](C)(OC)[C@@H](O)[C@H](C)O2)[C@H](C)[C@@H](O[C@@H]2O[C@H](C)C[C@H](N(C)C)[C@H]2O)[C@](C)(O)C[C@@H](C)/C(=N\OCOCCOC)[C@H](C)[C@@H](O)[C@]1(C)O [roxithromycin]
Km (MphI; 200 uM GTP): 32 ± 4 µM
Ki (MphB): 960 ± 510 µM

CC[C@H]1OC(=O)[C@H](C)C(=O)[C@H](C)[C@@H](O[C@@H]2O[C@H](C)C[C@H](N(C)C)[C@H]2O)[C@](C)(OC)C[C@@H](C)C(=O)[C@H](C)[C@H]2N(CCCCn3cnc(-c4cccnc4)c3)C(=O)O[C@]12C [telithromycin]
Km (MphI; 200 uM GTP): 3 ± 0.5 µM
MIC [1]: 0.125 µg/mL (≈ 0.154 µM)

MphB (Escherichia coli O83:H1 str. NRG 857C)
Km [2]: 6.6 ± 1.8 µM
kcat [2]: 0.77 ± 0.04 s⁻¹
Km [3]: 1.6 ± 0.2 µM
kcat [3]: 0.0412 ± 0.0009 s⁻¹
Km [4]: 2.9 ± 0.36 µM
kcat [4]: 0.189 ± 0.004 s⁻¹
Km [5]: 8.3 ± 0.45 µM
kcat [5]: 0.602 ± 0.008 s⁻¹

MphK (Bacillus subtilis subsp. subtilis str. 168)
Km [6]: 4.2 ± 0.45 µM
kcat [6]: 0.056 ± 0.001 s⁻¹
Km [7]: 940 ± 320 µM
kcat [7]: 0.025 ± 0.005 s⁻¹
Km [8]: 17 ± 1 µM
kcat [8]: 0.0491 ± 0.0004 s⁻¹
Km [9]: 6.3 ± 2.4 µM
kcat [9]: 0.0022 ± 0.0002 s⁻¹
kcat/Km [9]: 350 M⁻¹ s⁻¹
Km [10]: 100 ± 25 µM
kcat [10]: 0.005 ± 0.0004 s⁻¹
kcat/Km [10]: 49 M⁻¹ s⁻¹
